Source: publication PMC8920935

Assays:
[1] = molecular target: Escherichia coli YidC, cysteine-less, with a cysteine introduced at position 405 (WT in the FRET assay) (Escherichia coli) (UniProt P25714); experiment: FRET or BRET; labelled Pf3 coat added in steps (60, 60, 150, 150, 150, 300, 300 nM; final 1.17 uM; 1 min each) to DOPC proteoliposomes with 300 nM labelled YidC; excitation 500 nm, acceptor signal at 669 nm; room temperature
[2] = molecular target: Escherichia coli YidC R366E/F433S, cysteine-less, with a cysteine introduced at position 405 (Escherichia coli) (UniProt P25714); experiment: as above

## Pf3 coat protein, fluorescently labelled at residue 48 (from UniProt P03623 1-44) (natural protein)
[1]
  Kd: 241 nM
[2]
  Kd: 349 nM
